Laboratory results as given in the supplement of paper PMC10065799, “High-throughput profiling of sequence recognition by tyrosine kinases and SH2 domains using bacterial peptide display” (eLife, 2023).

Assays:
Fes = Fes (UniProt P07332); experiment: phosphorylation enrichment, bacterial display (enrichment ratio); higher = better substrate or ligand; peptides without Tyr show the background
EPHB2 = EPHB2 (UniProt P29323); experiment: as above
FGFR3 = FGFR3 (UniProt P22607); experiment: as above
Hck = Hck (UniProt P08631); experiment: as above
FGFR1 = FGFR1 (UniProt P11362); experiment: as above
Sequence of FGFR1 (P11362 whole entry, looked up): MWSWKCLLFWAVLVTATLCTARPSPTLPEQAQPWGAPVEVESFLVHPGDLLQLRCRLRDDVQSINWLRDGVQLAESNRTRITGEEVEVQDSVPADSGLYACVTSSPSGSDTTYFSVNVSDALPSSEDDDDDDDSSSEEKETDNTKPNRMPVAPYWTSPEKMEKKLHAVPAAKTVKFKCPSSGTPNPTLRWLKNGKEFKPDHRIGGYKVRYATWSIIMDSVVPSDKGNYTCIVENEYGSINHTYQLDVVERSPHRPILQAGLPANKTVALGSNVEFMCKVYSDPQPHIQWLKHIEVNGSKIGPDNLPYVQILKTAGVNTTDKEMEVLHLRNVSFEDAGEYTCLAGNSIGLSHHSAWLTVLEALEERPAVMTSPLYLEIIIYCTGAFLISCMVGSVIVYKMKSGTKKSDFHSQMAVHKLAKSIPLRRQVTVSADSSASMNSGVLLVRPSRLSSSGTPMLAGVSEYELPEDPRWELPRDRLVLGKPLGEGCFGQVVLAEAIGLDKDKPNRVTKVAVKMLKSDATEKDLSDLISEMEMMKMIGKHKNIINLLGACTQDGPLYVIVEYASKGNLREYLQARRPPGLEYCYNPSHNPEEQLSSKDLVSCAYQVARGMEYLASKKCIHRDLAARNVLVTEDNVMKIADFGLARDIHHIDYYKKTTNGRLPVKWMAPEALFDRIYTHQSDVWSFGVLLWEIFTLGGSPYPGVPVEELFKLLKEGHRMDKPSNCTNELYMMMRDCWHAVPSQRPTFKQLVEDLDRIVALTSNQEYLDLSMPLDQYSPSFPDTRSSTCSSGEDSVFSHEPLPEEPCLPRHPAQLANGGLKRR

c-Src = experiment: as above
Jak2 = Jak2 (UniProt O60674); experiment: as above
EPHB1 = EPHB1 (UniProt P54762); experiment: as above
Sequence of EPHB1 (P54762 whole entry, looked up): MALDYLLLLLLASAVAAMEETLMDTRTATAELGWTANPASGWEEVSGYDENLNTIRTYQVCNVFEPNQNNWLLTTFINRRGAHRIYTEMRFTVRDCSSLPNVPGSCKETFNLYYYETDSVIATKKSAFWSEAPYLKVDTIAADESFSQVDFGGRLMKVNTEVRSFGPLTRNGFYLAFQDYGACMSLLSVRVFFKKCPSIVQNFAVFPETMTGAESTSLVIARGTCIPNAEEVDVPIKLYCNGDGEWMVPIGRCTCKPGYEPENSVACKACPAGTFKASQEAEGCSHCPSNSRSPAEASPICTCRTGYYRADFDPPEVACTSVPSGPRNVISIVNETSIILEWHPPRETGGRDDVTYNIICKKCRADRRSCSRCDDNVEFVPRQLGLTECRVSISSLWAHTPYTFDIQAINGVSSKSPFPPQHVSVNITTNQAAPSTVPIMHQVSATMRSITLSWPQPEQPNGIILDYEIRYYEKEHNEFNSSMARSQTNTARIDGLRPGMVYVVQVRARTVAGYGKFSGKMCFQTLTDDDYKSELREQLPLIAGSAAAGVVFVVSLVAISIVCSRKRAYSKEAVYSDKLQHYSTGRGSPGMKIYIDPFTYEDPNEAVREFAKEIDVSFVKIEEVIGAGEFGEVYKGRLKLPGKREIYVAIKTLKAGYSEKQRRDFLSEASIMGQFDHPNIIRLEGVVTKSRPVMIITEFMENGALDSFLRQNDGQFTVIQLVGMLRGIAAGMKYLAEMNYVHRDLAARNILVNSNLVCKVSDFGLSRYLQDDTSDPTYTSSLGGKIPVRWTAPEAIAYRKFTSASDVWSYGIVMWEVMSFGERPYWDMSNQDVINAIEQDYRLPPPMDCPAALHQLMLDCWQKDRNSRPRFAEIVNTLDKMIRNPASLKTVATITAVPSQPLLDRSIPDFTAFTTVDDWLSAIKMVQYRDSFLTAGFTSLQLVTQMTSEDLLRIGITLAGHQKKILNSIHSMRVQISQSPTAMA

c-Abl (mouse) = experiment: as above
Fer (mouse) = experiment: as above
Fyn = Fyn (UniProt P06241); experiment: as above
MERTK = MERTK (UniProt Q12866); experiment: as above
Sequence of MERTK (Q12866 whole entry, looked up): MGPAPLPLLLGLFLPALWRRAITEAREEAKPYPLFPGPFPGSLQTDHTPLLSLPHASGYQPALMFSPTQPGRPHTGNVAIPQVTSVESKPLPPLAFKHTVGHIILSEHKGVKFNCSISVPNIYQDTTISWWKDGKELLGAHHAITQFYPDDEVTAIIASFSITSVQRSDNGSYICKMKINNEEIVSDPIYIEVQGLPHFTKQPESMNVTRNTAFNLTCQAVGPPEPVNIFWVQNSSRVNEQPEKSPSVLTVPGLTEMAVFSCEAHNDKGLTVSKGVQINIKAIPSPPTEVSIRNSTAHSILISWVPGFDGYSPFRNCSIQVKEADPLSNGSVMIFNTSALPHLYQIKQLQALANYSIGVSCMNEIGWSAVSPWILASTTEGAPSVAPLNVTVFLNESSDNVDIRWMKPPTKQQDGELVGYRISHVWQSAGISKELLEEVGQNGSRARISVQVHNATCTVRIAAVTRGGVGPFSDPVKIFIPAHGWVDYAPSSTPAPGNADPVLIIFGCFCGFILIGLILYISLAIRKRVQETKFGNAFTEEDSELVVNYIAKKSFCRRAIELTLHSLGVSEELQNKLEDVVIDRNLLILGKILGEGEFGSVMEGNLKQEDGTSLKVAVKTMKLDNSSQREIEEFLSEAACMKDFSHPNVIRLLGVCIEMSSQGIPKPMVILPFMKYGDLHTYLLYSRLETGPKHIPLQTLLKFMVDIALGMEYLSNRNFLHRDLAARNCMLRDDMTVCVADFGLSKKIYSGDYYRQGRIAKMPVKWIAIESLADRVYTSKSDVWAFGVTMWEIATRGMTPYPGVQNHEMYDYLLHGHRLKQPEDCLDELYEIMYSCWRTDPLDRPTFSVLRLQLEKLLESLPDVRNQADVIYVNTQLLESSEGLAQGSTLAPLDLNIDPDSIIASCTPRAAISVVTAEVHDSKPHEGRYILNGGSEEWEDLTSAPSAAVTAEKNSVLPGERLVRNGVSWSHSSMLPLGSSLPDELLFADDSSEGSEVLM

AncSZ = experiment: as above
SHP2-C SH2 = experiment: SH2 binding enrichment of the phosphorylated peptide, bacterial display (enrichment ratio); higher = better substrate or ligand; peptides without Tyr show the background
c-Src SH2 = experiment: as above
Grb2 SH2 = Grb2 SH2 (UniProt P62993); experiment: as above
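For SH2 binding enrichment of the phosphorylated peptide, bacterial display in this document: peptide library displayed on the E. coli surface as eCPX fusions, selected cells deep-sequenced, score is each peptide's frequency after selection divided by its frequency in the input.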
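For phosphorylation enrichment, bacterial display in this document: 11-residue human phosphosite peptides and single-mutation variants displayed on the E. coli surface, counted by deep sequencing, each peptide's frequency after selection divided by its frequency in the unselected input library; frequency after pTyr selection over input frequency; kinase dosed for 20-30% of maximal phosphorylation in three min.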

Sequence of Fes (P07332 whole entry, looked up): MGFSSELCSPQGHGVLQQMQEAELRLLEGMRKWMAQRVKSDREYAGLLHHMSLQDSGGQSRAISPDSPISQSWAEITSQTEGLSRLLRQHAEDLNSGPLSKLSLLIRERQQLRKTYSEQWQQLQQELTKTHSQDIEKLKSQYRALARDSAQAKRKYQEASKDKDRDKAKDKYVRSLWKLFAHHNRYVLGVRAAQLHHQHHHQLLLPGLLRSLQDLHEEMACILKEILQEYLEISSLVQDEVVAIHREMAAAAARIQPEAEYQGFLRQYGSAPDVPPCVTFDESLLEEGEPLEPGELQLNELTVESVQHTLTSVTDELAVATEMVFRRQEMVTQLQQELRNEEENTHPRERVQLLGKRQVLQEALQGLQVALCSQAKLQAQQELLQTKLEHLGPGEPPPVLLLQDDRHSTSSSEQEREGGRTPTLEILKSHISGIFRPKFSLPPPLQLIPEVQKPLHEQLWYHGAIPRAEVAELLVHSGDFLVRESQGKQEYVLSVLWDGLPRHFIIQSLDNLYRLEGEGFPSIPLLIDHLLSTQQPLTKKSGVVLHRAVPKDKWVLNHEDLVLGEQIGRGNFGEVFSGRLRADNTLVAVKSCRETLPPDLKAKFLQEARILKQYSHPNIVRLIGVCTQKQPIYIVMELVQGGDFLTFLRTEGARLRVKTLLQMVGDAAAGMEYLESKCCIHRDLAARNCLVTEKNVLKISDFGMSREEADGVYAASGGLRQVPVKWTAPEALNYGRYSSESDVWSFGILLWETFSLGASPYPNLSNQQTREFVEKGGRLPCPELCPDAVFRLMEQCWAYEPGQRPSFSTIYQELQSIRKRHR
Sequence of EPHB2 (P29323 whole entry, looked up): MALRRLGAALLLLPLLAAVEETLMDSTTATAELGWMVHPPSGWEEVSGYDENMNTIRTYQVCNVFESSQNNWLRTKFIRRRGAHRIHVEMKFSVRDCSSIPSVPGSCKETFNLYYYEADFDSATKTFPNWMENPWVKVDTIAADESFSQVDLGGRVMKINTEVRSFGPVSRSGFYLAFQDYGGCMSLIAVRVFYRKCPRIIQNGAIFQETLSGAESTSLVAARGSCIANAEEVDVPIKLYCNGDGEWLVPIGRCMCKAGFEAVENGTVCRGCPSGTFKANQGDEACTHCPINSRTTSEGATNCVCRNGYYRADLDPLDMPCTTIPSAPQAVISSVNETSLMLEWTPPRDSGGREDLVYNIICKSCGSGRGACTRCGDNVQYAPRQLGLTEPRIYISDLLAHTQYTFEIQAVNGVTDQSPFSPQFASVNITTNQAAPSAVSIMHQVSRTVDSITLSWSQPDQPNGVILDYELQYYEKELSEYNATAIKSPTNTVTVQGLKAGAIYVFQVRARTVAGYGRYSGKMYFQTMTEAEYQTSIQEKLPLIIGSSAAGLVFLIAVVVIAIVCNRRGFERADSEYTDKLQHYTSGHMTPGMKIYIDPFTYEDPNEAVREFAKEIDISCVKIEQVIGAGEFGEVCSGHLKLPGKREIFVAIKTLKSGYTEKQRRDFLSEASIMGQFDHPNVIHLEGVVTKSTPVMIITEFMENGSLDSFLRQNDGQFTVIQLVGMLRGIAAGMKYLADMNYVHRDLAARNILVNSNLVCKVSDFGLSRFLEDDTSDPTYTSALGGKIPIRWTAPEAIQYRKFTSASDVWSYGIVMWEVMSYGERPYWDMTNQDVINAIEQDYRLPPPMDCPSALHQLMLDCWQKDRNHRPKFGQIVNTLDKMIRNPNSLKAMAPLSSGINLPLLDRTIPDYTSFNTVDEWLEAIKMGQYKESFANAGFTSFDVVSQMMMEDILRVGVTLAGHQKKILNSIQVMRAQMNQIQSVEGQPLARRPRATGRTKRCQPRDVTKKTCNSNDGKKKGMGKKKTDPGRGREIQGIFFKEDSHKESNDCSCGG

| Sequence | SH2 binding enrichment (SHP2-C SH2) | SH2 binding enrichment (c-Src SH2) | SH2 binding enrichment (Grb2 SH2) | phosphorylation enrichment (Fes) | phosphorylation enrichment (EPHB2) | phosphorylation enrichment (FGFR3) | phosphorylation enrichment (Hck) | phosphorylation enrichment (FGFR1) | phosphorylation enrichment (c-Src) | phosphorylation enrichment (Jak2) | phosphorylation enrichment (EPHB1) | phosphorylation enrichment (c-Abl (mouse)) | phosphorylation enrichment (Fer (mouse)) | phosphorylation enrichment (Fyn) | phosphorylation enrichment (MERTK) | phosphorylation enrichment (AncSZ) |
| --- | --- | --- | --- | --- | --- | --- | --- | --- | --- | --- | --- | --- | --- | --- | --- | --- |
| TLQWMYGCDVG [HLA-B_Y123_S121W] | 0.657 | 0.446 | 0.772 | 1.34 | 0.661 | 0.814 | 0.485 | 0.396 | 0.354 | 1.22 | 0.744 | 1.05 | 0.566 | 0.437 | 0.38 | 1.2 |
| TLSGTYQFIIA [FOXL2_Y81_I80T_YF] | 1.13 | 1.11 | 0.968 | 1.05 | 0.924 | 1.9 | 1.34 | 2.22 | 0.892 | 0.732 | 1.31 | 0.611 | 1.44 | 0.814 | 2.89 | 1.27 |
| TNQVIYLNPPI [DYNC1H1_Y970] | 0.99 | 0.459 | 0.819 | 0.77 | 4.73 | 2.94 | 1.45 | 3.51 | 0.743 | 0.706 | 7.69 | 13.9 | 0.473 | 0.62 | 3.71 | 0.849 |
| TQTPPYVKKHP [LARP1B_Y457] | 0.821 | 0.629 | 1.01 | 0.624 | 0.39 | 0.521 | 0.357 | 0.34 | 0.488 | 0.593 | 0.458 | 0.514 | 0.439 | 0.459 | 0.466 | 0.677 |
| TRSYDYMEGED [FGF7_Y58_G62E] | 1.05 | 10.4 | 0.977 | 1.47 | 0.634 | 0.869 | 0.549 | 5.52 | 0.574 | 1.51 | 0.711 | 0.919 | 0.645 | 0.607 | 0.591 | 1.41 |
| TVDASYCGGRG [ANTXR2_Y380_Y381C] | 0.914 | 0.567 | 0.757 | 0.695 | 0.516 | 0.437 | 0.436 | 0.496 | 0.351 | 0.558 | 0.393 | 0.465 | 0.402 | 0.383 | 0.452 | 0.558 |
| TVSSDYLHPQY [CCPG1_Y569_F566S] | 0.88 | 0.762 | 1.21 | 0.681 | 0.531 | 0.54 | 0.407 | 0.528 | 0.355 | 0.536 | 0.43 | 0.521 | 0.442 | 0.365 | 0.315 | 1.28 |
| TWSRSYRSDRL [CRYBB1_Y131_S129R] | 0.354 | 0.38 | 0.636 | 0.715 | 0.51 | 0.494 | 0.614 | 0.607 | 0.545 | 0.778 | 0.445 | 0.586 | 0.452 | 0.453 | 0.518 | 0.676 |
| TYGVAYRAKDK [CDK11B_Y453_V452A] | 0.882 | 0.48 | 0.881 | 0.807 | 0.592 | 0.537 | 1.15 | 0.791 | 0.829 | 0.578 | 0.357 | 0.567 | 0.38 | 0.812 | 0.621 | 0.712 |
| VAMELYVFRGV [GAN_Y471_G474R] | 0.567 | 0.548 | 0.836 | 1.29 | 0.841 | 0.807 | 0.651 | 0.553 | 0.615 | 1.09 | 0.707 | 0.935 | 0.501 | 0.503 | 0.684 | 1.16 |
| VATRWYRSLEL [CDKL5_Y177_P180L] | 0.551 | 0.373 | 0.717 | 0.742 | 0.368 | 0.473 | 0.432 | 0.436 | 0.314 | 0.576 | 0.447 | 0.468 | 0.357 | 0.385 | 0.366 | 0.825 |
| VDHFGYNKDDK [APOB_Y740_T741N] | 0.595 | 0.465 | 0.665 | 0.874 | 0.528 | 0.493 | 0.436 | 0.465 | 0.485 | 1.1 | 0.427 | 0.974 | 0.398 | 0.485 | 0.434 | 1.02 |
| VFLARYGPAWR [CYP2D6_Y124] | 0.703 | 0.572 | 0.948 | 1.21 | 0.598 | 0.501 | 0.548 | 0.468 | 0.603 | 0.793 | 0.405 | 0.52 | 0.413 | 0.434 | 0.472 | 1.12 |

Second part, led by results:

| SH2 binding enrichment (SHP2-C SH2) | SH2 binding enrichment (c-Src SH2) | SH2 binding enrichment (Grb2 SH2) | Sequence | phosphorylation enrichment (Fes) | phosphorylation enrichment (EPHB2) | phosphorylation enrichment (FGFR3) | phosphorylation enrichment (Hck) | phosphorylation enrichment (FGFR1) | phosphorylation enrichment (c-Src) | phosphorylation enrichment (Jak2) | phosphorylation enrichment (EPHB1) | phosphorylation enrichment (c-Abl (mouse)) | phosphorylation enrichment (Fer (mouse)) | phosphorylation enrichment (Fyn) | phosphorylation enrichment (MERTK) | phosphorylation enrichment (AncSZ) |
| --- | --- | --- | --- | --- | --- | --- | --- | --- | --- | --- | --- | --- | --- | --- | --- | --- |
| 0.896 | 0.786 | 0.898 | TLNFCYQQVKS [PTK2_Y148_F147C] | 1.28 | 0.709 | 0.884 | 0.52 | 0.617 | 0.524 | 1.07 | 0.718 | 0.936 | 0.501 | 0.44 | 0.399 | 1.25 |
| 0.608 | 0.483 | 0.761 | TLNTNYHLPPS [MT-ATP8_Y33_M28T] | 0.587 | 0.451 | 1.69 | 0.343 | 2.51 | 0.403 | 0.485 | 1.37 | 0.655 | 0.372 | 0.47 | 0.57 | 0.698 |
| 0.802 | 0.591 | 0.894 | TNLVPYPCIHF [TUBA1A_Y262_R264C] | 0.96 | 0.557 | 0.66 | 0.534 | 0.546 | 0.519 | 0.753 | 0.599 | 0.646 | 0.517 | 0.492 | 0.578 | 0.975 |
| 40.4 | 2.64 | 1.05 | TNLVPYTRIHF [TUBA1A_Y262_P263T] | 0.829 | 0.423 | 0.506 | 0.487 | 0.468 | 0.441 | 0.682 | 0.455 | 0.469 | 0.385 | 0.45 | 0.374 | 0.765 |
| 1.09 | 0.591 | 0.9 | TNYRLYLRSLE [MTM1_Y71] | 1.3 | 0.556 | 0.776 | 0.555 | 0.595 | 0.504 | 1.22 | 0.666 | 1.31 | 0.524 | 0.552 | 0.554 | 1.11 |
| 0.82 | 0.494 | 0.91 | TQPSPYAVFLF [RPGRIP1_Y823_R827L_YF] | 0.915 | 1.28 | 0.942 | 3.69 | 1.28 | 5.76 | 0.926 | 2.12 | 15.1 | 7.3 | 6.88 | 7.59 | 0.826 |
| 0.872 | 0.815 | 1.09 | TRSYKCLLLSM [NF1_Y491_Y491C] | 0.94 | 0.487 | 0.619 | 0.441 | 0.375 | 0.401 | 0.784 | 0.486 | 0.637 | 0.402 | 0.425 | 0.434 | 0.979 |
| 0.635 | 0.732 | 0.939 | TSYSGYRCHRH [NKAPL_Y94_Y96C] | 0.695 | 0.477 | 0.584 | 0.5 | 0.63 | 0.433 | 0.678 | 0.386 | 0.528 | 0.31 | 0.352 | 0.509 | 0.694 |
| 0.597 | 0.465 | 0.921 | TTTQAYRVDER [PRKN_Y391] | 0.758 | 0.439 | 0.512 | 0.446 | 0.446 | 0.389 | 0.57 | 0.473 | 0.714 | 0.479 | 0.482 | 0.404 | 0.709 |
| 1.16 | 0.713 | 1.05 | TVLEHYRRTHC [MYBPC3_Y1119] | 0.672 | 0.681 | 0.519 | 0.5 | 0.438 | 0.395 | 0.606 | 0.468 | 0.532 | 0.408 | 0.52 | 0.569 | 0.526 |
| 0.673 | 1.32 | 0.779 | TVLEPYADPFF [ZC3H18_Y367_YF] | 0.879 | 0.5 | 0.611 | 0.65 | 0.753 | 0.517 | 0.906 | 0.432 | 0.565 | 0.536 | 0.526 | 0.408 | 1.16 |
| 0.586 | 0.631 | 0.834 | TYQYKYPEGSS [TGM4_Y440_E437Q] | 0.905 | 0.56 | 0.63 | 0.455 | 0.425 | 0.494 | 0.743 | 0.548 | 0.691 | 0.509 | 0.567 | 0.429 | 0.85 |
| 0.696 | 0.446 | 0.792 | VAVVDYVEPSP [TXNRD2_Y70] | 0.974 | 0.776 | 0.683 | 0.454 | 0.603 | 0.416 | 0.912 | 0.561 | 0.627 | 0.52 | 0.53 | 0.415 | 1.35 |
| 0.805 | 3.75 | 0.766 | VCHELYNTIRD [PBRM1_Y54] | 0.975 | 0.608 | 0.683 | 3.01 | 0.489 | 1.38 | 0.761 | 0.546 | 0.978 | 0.683 | 0.718 | 0.448 | 0.898 |
| 1.13 | 0.816 | 0.87 | VFSTDCFRVGG [NTRK2_Y706_Y706C_YF] | 0.971 | 0.462 | 0.602 | 0.685 | 0.565 | 0.44 | 1.07 | 0.588 | 1.04 | 0.761 | 0.945 | 0.549 | 1.02 |
| 0.705 | 0.356 | 0.668 | VGNAAYQAGSL [STK36_Y1181_P1185S] | 0.598 | 0.37 | 0.446 | 0.37 | 0.552 | 0.361 | 0.466 | 0.437 | 0.448 | 0.436 | 0.401 | 0.312 | 0.565 |
